Laboratory results from patent US20150368661A1 (UNIVERSITY OF LOUISVILLE RESEARCH FOUNDATION, published 2015).
Like-named read-outs stand apart in the source and are kept apart here.

Experiments:
[1] = target: T1, recombinant gp120 from HIV-1 SF162 (clade B) (HIV-1 SF162 (clade B), UniProt P19550 32-502); assay: VRC01p (plant-produced)
T1 construct: domain: gp120; also called gp120SF162

[2] = target: T2, HIV-1 Env of strain Q769.h5 (clade A) on Env-pseudotyped virus (HIV-1 Q769.h5 (clade A)); assay: cell-based or functional assay
[3] = target: T3, HIV-1 Env of strain SF162 (clade B) on Env-pseudotyped virus (HIV-1 SF162 (clade B), UniProt P19550 32-847); assay: cell-based or functional assay
[4] = target: T4, HIV-1 Env of strain SS1196.1 (clade B) on Env-pseudotyped virus (HIV-1 SS1196.1 (clade B)); assay: cell-based or functional assay
[5] = target: T5, HIV-1 Env of strain Du156 (clade C) on Env-pseudotyped virus (HIV-1 Du156 (clade C)); assay: cell-based or functional assay
[6] = target: T2, HIV-1 Env of strain Q769.h5 (clade A) …; assay: cell-based or functional assay; remark: listed apart in the source
[7] = target: T3, HIV-1 Env of strain SF162 (clade B) on …; assay: cell-based or functional assay; remark: listed apart in the source
[8] = target: T4, HIV-1 Env of strain SS1196.1 (clade B) …; assay: cell-based or functional assay; remark: listed apart in the source
[9] = target: T5, HIV-1 Env of strain Du156 (clade C) on …; assay: cell-based or functional assay; remark: listed apart in the source
[10] = target: T6, recombinant gp120 from HIV-1 Q769.H5 (clade A) (HIV-1 Q769.H5 (clade A)); assay: gp120-ELISA, plate coated with recombinant gp120, non-linear regression
T6 construct: domain: gp120

[11] = target: T7, recombinant gp120 from HIV-1 DU156 (clade C) (HIV-1 DU156 (clade C)); assay: as above
T7 construct: domain: gp120; also called gp120DU156

[12] = target: T1, recombinant gp120 from HIV-1 SF162 …; assay: gp120-ELISA, plate coated with recombinant gp120, non-linear regression; VRC01p (plant-produced)
[13] = target: T1, recombinant gp120 from HIV-1 SF162 …
[14] = target: T1, recombinant gp120 from HIV-1 SF162 …; assay: gp120-ELISA, plate coated with recombinant gp120, non-linear regression

B1: VRC01p (Nicotiana benthamiana plant-expressed anti-HIV-1 bnMAb VRC01 IgG1 from the L-(KP6pp)-H construct) (antibody)
light: EIVLTQSPGTLSLSPGETAIISCRTSQYGSLAWYQQRPGQAPRLVIYSGSTRAAGIPDRFSGSRWGPDYNLTISNLESGDFGVYYCQQYEFFGQGTKVQVDIKRTVAAPSVFIFPPSDEQLKSGTASVVCLLNNFYPREAKVQWKVDNALQSGNSQESVTEQDSKDSTYSLSSTLTLSKADYEKHKVYACEVTHQGLRSPVTKSFNRGECGGK
heavy: not shown
notes: also called plant-produced VRC01; VRC01p IgG1
Kd [1]: 3.97 nM | VRC01p IC50 (µg/ml), HIV-1 neutralization [2]: 0.17 µg/mL | VRC01p IC50 (µg/ml), HIV-1 neutralization [3]: 0.04 µg/mL | VRC01p IC50 (µg/ml), HIV-1 neutralization [4]: 1.32 µg/mL | VRC01p IC50 (µg/ml), HIV-1 neutralization [5]: 0.14 µg/mL | IC50 (µg/ml) for VRC01p alone, HIV-1 neutralization, TZM-bl cells (VRC01p:GRFT series) [6]: 0.37 µg/mL | IC50 (µg/ml) for VRC01p alone, HIV-1 neutralization, TZM-bl cells (VRC01p:MVC series) [6]: 0.54 µg/mL | IC50 (µg/ml) for VRC01p alone, HIV-1 neutralization, TZM-bl cells (VRC01p:TFV series) [6]: 0.47 µg/mL | IC50 (µg/ml) for VRC01p alone, HIV-1 neutralization, TZM-bl cells (VRC01p:GRFT series) [7]: 0.98 µg/mL | IC50 (µg/ml) for VRC01p alone, HIV-1 neutralization, TZM-bl cells (VRC01p:MVC series) [7]: 0.5 µg/mL | IC50 (µg/ml) for VRC01p alone, HIV-1 neutralization, TZM-bl cells (VRC01p:TFV series) [7]: 0.65 µg/mL | IC50 (µg/ml) for VRC01p alone, HIV-1 neutralization, TZM-bl cells (VRC01p:GRFT series) [8]: 2.61 µg/mL | IC50 (µg/ml) for VRC01p alone, HIV-1 neutralization, TZM-bl cells (VRC01p:MVC series) [8]: 2.22 µg/mL | IC50 (µg/ml) for VRC01p alone, HIV-1 neutralization, TZM-bl cells (VRC01p:TFV series) [8]: 2.14 µg/mL | IC50 (µg/ml) for VRC01p alone, HIV-1 neutralization, TZM-bl cells (VRC01p:GRFT series) [9]: 0.25 µg/mL | IC50 (µg/ml) for VRC01p alone, HIV-1 neutralization, TZM-bl cells (VRC01p:MVC series) [9]: 0.26 µg/mL | IC50 (µg/ml) for VRC01p alone, HIV-1 neutralization, TZM-bl cells (VRC01p:TFV series) [9]: 0.23 µg/mL | EC50 [10]: 0.35 µg/mL | EC50 [11]: 67.9 µg/mL | EC50 [12]: 4.11 µg/mL

B2: VRC01HEK (HEK293F cell-produced bnMAb VRC01) (antibody)
light: EIVLTQSPGTLSLSPGETAIISCRTSQYGSLAWYQQRPGQAPRLVIYSGSTRAAGIPDRFSGSRWGPDYNLTISNLESGDFGVYYCQQYEFFGQGTKVQVDIKRTVAAPSVFIFPPSDEQLKSGTASVVCLLNNFYPREAKVQWKVDNALQSGNSQESVTEQDSKDSTYSLSSTLTLSKADYEKHKVYACEVTHQGLRSPVTKSFNRGEC
heavy: not shown
notes: also called human cell-produced VRC01; human cell-derived bnMAb
Kd [13]: 3.82 nM | EC50 [10]: 0.28 µg/mL | EC50 [14]: 4.24 µg/mL | EC50 [11]: 15.1 µg/mL
